Reference: the supplement of paper PMC6757056
± gives the standard deviation of the averaged measurements.

B1: library; a variant is named by its letters at N, in order (parent)
chain: GCUGUCACCGGUGUAUUACCCUAGUGGUCGACCGGUCUGAUGAGUCUNNNNNNAGACGAAACAGC

Legend:
[1] = variants of: B1; assay: normalized RNA/DNA level with ligand (relative to sTRSVctl = 100) (log10 (% of sTRSVctl)); ligand: hypoxanthine (xanthine aptamer); higher = less ribozyme self-cleavage, higher mRNA level; settings: ligand concentration (+) RNA-Seq: 5 mM, HEK293T, reporter: mCherry (pCS4076), ligand present: yes
Summary of the method: (§1)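 For each 6-well well, 4 µg of library plasmid encoding mCherry-linked ribozyme switches, or eGFP-linked ones in some ligand experiments, was transfected into HEK293T. Any ligand was added 1 h before transfection, and RNA was extracted with EDTA 72 h after it, then reverse-transcribed, amplified, barcoded and sequenced. RNA level was obtained by dividing RNA reads by DNA reads, normalizing to a spiked-in non-cleaving sequence or to the top sequences, then scaling and log-transforming. The top set was 25 sequences, scaling was ×100 with log10, and ≥100 DNA reads were required.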

[2] = variants of: B1; assay: normalized RNA/DNA level without ligand (relative to sTRSVctl = 100) (log10 (% of sTRSVctl)); ligand: hypoxanthine (xanthine aptamer); higher = less ribozyme self-cleavage, higher mRNA level; settings: HEK293T, reporter: mCherry (pCS4076), ligand present: no
Summary of the method: as §1

Row | Variant | normalized RNA/DNA level with ligand (log10) [1] | normalized RNA/DNA level without ligand (log10) [2]
1 | AGUGAC | 1.912 ± 0.019 | 1.814 ± 0.012
2 | CGUGAG | 1.85 ± 0.082 | 1.75 ± 0.011
3 | UGUGAG | 1.894 ± 0.015 | 1.588 ± 0.011
4 | AGUGAG | 1.79 ± 0.029 | 1.28 ± 0.096
5 | CGUGAU | 1.9 ± 0.032 | 1.73 ± 0.024
6 | UGUGAU | 1.9 ± 0.026 | 1.77 ± 0.023
7 | GGUGCA | 1.92 ± 0.043 | 1.88 ± 0.05
8 | UGUGCA | 1.92 ± 0.031 | 1.86 ± 0.022
9 | AGUGCA | 1.92 ± 0.051 | 1.78 ± 0.03
10 | CGUGCC | 1.97 ± 0.039 | 1.922 ± 0.0033
11 | UGUGCC | 1.984 ± 0.0044 | 1.946 ± 0.019
12 | AGUGCC | 1.94 ± 0.033 | 1.838 ± 0.0064
13 | CGUGCG | 1.95 ± 0.071 | 1.9 ± 0.027
14 | AGUGCG | 1.84 ± 0.02 | 1.365 ± 0.0051
15 | UGUGCU | 1.92 ± 0.0065 | 1.93 ± 0.057
16 | AGUGCU | 1.998 ± 0.013 | 1.85 ± 0.023
17 | CGUGGC | 1.901 ± 0.0033 | 1.883 ± 0.013
18 | UGUGGC | 1.99 ± 0.04 | 1.8784 ± 0.00098
19 | GGUGGG | 1.9 ± 0.028 | 1.47 ± 0.056
20 | UGUGGG | 1.93 ± 0.014 | 1.64 ± 0.035

Row | Variant | normalized RNA/DNA level with ligand (log10) [1] | normalized RNA/DNA level without ligand (log10) [2]
21 | AGUGGG | 1.89 ± 0.076 | 1.543 ± 0.007
22 | CGUGGU | 1.95 ± 0.021 | 1.86 ± 0.026
23 | GGUGGU | 1.96 ± 0.084 | 1.86 ± 0.061
24 | UGUGGU | 1.89 ± 0.037 | 1.68 ± 0.017
25 | AGUGGU | 1.898 ± 0.015 | 1.55 ± 0.056
26 | CGUGUA | 1.93 ± 0.024 | 1.68 ± 0.042
27 | UGUGUA | 1.92 ± 0.032 | 1.79 ± 0.058
28 | CGUGUC | 1.947 ± 0.015 | 1.94 ± 0.039
29 | GGUGUC | 1.916 ± 0.0061 | 1.846 ± 0.018
30 | UGUGUC | 1.98 ± 0.041 | 1.958 ± 0.0027
31 | AGUGUC | 1.98 ± 0.11 | 1.88 ± 0.02
32 | CGUGUG | 1.903 ± 0.015 | 1.75 ± 0.08
33 | CGUGUU | 1.97 ± 0.054 | 1.89 ± 0.071
34 | GGUGUU | 1.97 ± 0.051 | 1.88 ± 0.03
35 | UGUGUU | 1.95 ± 0.071 | 1.887 ± 0.0068
36 | AGUGUU | 1.96 ± 0.031 | 1.81 ± 0.027
37 | GGUUAA | 1.93 ± 0.062 | 1.77 ± 0.072
38 | UGUUAA | 1.94 ± 0.029 | 1.841 ± 0.014
39 | CGUUAC | 1.91 ± 0.082 | 1.717 ± 0.0087
40 | UGUUAC | 1.912 ± 0.0067 | 1.836 ± 0.0054

Row | Variant | normalized RNA/DNA level with ligand (log10) [1] | normalized RNA/DNA level without ligand (log10) [2]
41 | CGUUAG | 1.944 ± 0.01 | 1.77 ± 0.17
42 | UGUUAG | 1.884 ± 0.0019 | 1.69 ± 0.038
43 | CGUUAU | 1.916 ± 0.006 | 1.753 ± 0.011
44 | GGUUAU | 1.94 ± 0.052 | 1.79 ± 0.03
45 | AGUUAU | 1.89 ± 0.057 | 1.8 ± 0.068
46 | CGUUCA | 1.974 ± 0.012 | 1.758 ± 0.014
47 | GGUUCA | 1.916 ± 0.0031 | 1.89 ± 0.046
48 | UGUUCA | 1.96 ± 0.093 | 1.87 ± 0.029
49 | CGUUCC | 1.98 ± 0.032 | 1.913 ± 0.017
50 | GGUUCC | 1.99 ± 0.081 | 1.95 ± 0.022
51 | UGUUCC | 2.03 ± 0.011 | 1.93 ± 0.022
52 | AGUUCC | 1.922 ± 0.0092 | 1.886 ± 0.0063
53 | CGUUCG | 1.9 ± 0.025 | 1.84 ± 0.052
54 | GGUUCG | 1.92 ± 0.063 | 1.69 ± 0.051
55 | UGUUCG | 1.94 ± 0.074 | 1.8368 ± 0.00097
56 | AGUUCG | 1.857 ± 0.017 | 1.43 ± 0.021
57 | CGUUCU | 1.97 ± 0.046 | 1.843 ± 0.012
58 | GGUUCU | 1.977 ± 0.018 | 1.9 ± 0.022
